Our source for the decrease in NF-κB activation by LTβ, luciferase reporter, mouse embryonic fibroblast cells and NF-κB activation by LTβ, luciferase reporter, mouse embryonic fibroblast cells values is patent US20050287144A1.

This assay addresses endogenous NIK of mouse embryonic fibroblast cells (mouse) (UniProt Q9WUL6). Put plainly: cell-based or functional assay.

Chain of endogenous NIK of mouse embryonic fibroblast cells (mouse) (Q9WUL6 whole entry): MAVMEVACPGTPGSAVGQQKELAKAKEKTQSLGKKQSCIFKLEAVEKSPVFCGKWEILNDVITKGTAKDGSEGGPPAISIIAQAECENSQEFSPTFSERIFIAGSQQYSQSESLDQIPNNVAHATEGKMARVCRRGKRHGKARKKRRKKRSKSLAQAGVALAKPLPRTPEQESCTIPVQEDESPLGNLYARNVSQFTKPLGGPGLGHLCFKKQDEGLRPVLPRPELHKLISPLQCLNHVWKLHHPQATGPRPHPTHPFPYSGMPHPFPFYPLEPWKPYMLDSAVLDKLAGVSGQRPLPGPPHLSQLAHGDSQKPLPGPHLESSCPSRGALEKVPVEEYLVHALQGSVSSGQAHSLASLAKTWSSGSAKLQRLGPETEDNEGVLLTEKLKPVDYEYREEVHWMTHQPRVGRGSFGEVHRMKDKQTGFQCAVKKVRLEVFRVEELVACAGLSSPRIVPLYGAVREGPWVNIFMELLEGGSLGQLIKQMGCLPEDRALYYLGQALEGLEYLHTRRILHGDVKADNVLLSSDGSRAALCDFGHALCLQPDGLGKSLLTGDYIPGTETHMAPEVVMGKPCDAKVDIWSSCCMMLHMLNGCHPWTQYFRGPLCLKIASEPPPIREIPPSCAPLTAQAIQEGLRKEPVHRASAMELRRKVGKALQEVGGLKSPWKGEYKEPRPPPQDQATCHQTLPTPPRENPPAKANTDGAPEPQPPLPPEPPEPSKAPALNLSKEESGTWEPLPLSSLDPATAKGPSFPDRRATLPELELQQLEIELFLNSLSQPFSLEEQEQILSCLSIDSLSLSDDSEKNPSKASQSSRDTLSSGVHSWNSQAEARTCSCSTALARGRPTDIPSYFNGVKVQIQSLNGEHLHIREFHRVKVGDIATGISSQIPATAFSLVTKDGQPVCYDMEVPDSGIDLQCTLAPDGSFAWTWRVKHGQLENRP

Substance “GST-41MDD fusion protein (from UniProt P31785 329-369)” gave a decrease in NF-κB activation by LTβ, luciferase reporter, mouse embryonic fibroblast cells of 50%.
“GST fusion protein with the intracellular domain of cγc (from UniProt P31785 284-369)” returned an NF-κB activation by LTβ, luciferase reporter, mouse embryonic fibroblast cells of 2.5 fold.
